The text below walks through data of patent US7829301B2, “Screening assays for binding antagonists of the AMD-associated variant of factor H (H384)” (The University of Manchester, priority 2006, dated 2010).

Assay [1] relates to necrotic Jurkat T cells. Put plainly: Flow cytometry binding to necrotic cells. The note with it: 10 μg/ml. Format: cell-based. How it is done: Jurkat T cells (ATCC), were grown in RPMI, supplemented with glutamine, penicillin, streptomycin and 10% (v/v) heat inactivated FCS (all from Invitrogen). Necrosis was induced by heat whereby the cells were brought to a concentration of 10^6 per ml and incubated at 56° C. for 30 minutes in RPMI 1640 without FCS (Trouw et al. (2005) J. Exp. Med. 201, 1937-1948).
Binding of FHCCP6-8 variants to necrotic cells was analyzed using flow cytometry. Protein binding was analyzed by incubating cells with varying concentrations of the FHCCP6-8 variants (0 to 10 μg/ml) in FACS binding buffer (10 mM HEPES, 150 mM NaCl, 5 mM KCl, 1 mM MgCl2, 1.8 mM CaCl2), with shaking for 30 minutes at room temperature. After washing twice in the same buffer, cells were stained with goat anti-FH polyclonal antibodies (Quidel) for 30 minutes at room temperature. This was followed by matched FITC-labelled secondary antibodies (Dako).
Background: A flow cytometer gives signals particle by particle.

Assay [2] concerns the target T1, FMOD (Bos taurus, UniProt P13605).
T1 construct: FMOD was isolated from bovine articular cartilage; from tissue; host or cells: bovine articular cartilage
T1 sequence (P13605 19-376): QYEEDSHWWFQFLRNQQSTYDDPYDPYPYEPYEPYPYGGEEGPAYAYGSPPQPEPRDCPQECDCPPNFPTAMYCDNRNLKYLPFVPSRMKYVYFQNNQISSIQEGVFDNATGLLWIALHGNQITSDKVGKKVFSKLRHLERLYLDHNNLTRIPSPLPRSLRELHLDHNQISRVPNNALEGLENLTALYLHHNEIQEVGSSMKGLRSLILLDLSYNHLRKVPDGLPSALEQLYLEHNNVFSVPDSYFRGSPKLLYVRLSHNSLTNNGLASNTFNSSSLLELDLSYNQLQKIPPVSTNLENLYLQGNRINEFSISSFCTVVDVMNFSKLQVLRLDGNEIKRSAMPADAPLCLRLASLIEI
Put plainly: Protein/protein binding assay with coated FMOD. Also on record: species or system bovine. How it is done: FMOD was isolated from bovine articular cartilage (Heinghrd et al., (1986) J. Biol. Chem. 261, 13866-13872) and recombinant CRP was obtained from Calbiochem. Deglycosylated FMOD was prepared by treatment with N-glycosiadase F (Roche Applied Science) as previously described (Sjöberg et al. (2005) J. Biol. Chem. 280, 32301-32308).
CRP or FMOD was coated overnight at 4° C. onto microtiter plates (Maxisorp, Nunc) at a concentration of 10 μg/ml in 75 mM sodium carbonate buffer, pH 9.6. Wells treated only with coating buffer or 1% (w/v) BSA (Sigma) in coating buffer (for the assays involving FMOD) were used as negative controls. Between each step the wells were washed extensively with 50 mM Tris-HCl, 150 mM NaCl, 0.1% (v/v) Tween 20, pH 7.5. All wells were blocked with 1% (w/v) BSA (Sigma) in phosphate buffered saline (Invitrogen) for 1 hour at 37° C. […] The amount of bound protein was assessed using a goat polyclonal anti-FH antibody (Quidel, Cat # A312) followed by HRP-labeled anti-goat secondary antibodies (Dako) and the OPD development kit (Dako). Detection of biotinylated protein was performed using a StreptABComplex/HRP-kit from Dako, and in both cases the absorbance at 490 nm was measured to quantify protein binding.

B1: FHCCP6-8(H384): recombinant protein of Factor H CCPs 6-8, H384 allotype, with N-terminal non-authentic glycine (SEQ ID NO: 1) (protein, listed as Homo sapiens)
chain: MGTLKPCDYPDIKHGGLYHENMRRPYFPVAVGKYYSYYCDEHFETPSGSYWDHIHCTQDGWSPAVPCLRKCYFPYLENGYNQNHGRKFVQGKSIDVACHPGYALPKAQTTVTCMENGWSPTPRCIRVKTCSKSSIDIENGFISESQYTYALKEKAKYQCKLGYVTADGETSGSITCGKDGWSAQPTCI
modifications: VARIANT (1)...(188) Protein sequence of the FHCCP6-8 (H384) construct
Consider B1, for which the “binding to necrotic cells relative to the other variant” value in assay [1] was “binds necrotic cells better”.

B2: FHCCP6-8(Y384): recombinant Factor H CCPs 6-8, Y384 variant obtained by site-directed mutagenesis (SEQ ID NO: 3) (protein, listed as Homo sapiens)
chain: MGTLKPCDYPDIKHGGLYHENMRRPYFPVAVGKYYSYYCDEHFETPSGSYWDHIHCTQDGWSPAVPCLRKCYFPYLENGYNQNYGRKFVQGKSIDVACHPGYALPKAQTTVTCMENGWSPTPRCIRVKTCSKSSIDIENGFISESQYTYALKEKAKYQCKLGYVTADGETSGSITCGKDGWSAQPTCI
modifications: VARIANT (1)...(188) FHCCP6-8 (Y384 allotype of mature Factor H)
B2: in assay [2] (biotinylated FHCCP6-8 variants, all concentrations tested), the “binding to immobilized FMOD relative to the other variant” value is “significantly stronger signals”. Further, in assay [2] (direct binding assay), the “affinity for FMOD compared to H384 variant” value was “affinity is increased”.
